This is an account of results in the nanobody polyreactivity screen of Harvey et al. (2022).

The data set is described as follows: yeast display, Sf9 membrane polyspecificity reagent, FACS + sequencing; frameworks hold sequencing errors. An outline of the steps: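 Using colony PCR, genes from sorted yeast display clones were amplified, then sequenced on MiSeq at 2 × 250 and filtered by CDR length. The clones had been stained with 10% biotinylated, detergent-solubilized Sf9 membrane reagent for 1 hour at 4 °C and sorted by FACS into low and high (top ~1%) gates on anti-HA and streptavidin fluorescence. Polyreactivity labels come from the gate of origin.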
On to “QVQLVESGGGLVQAGGSLRLSCAASGSIFNYYAMGWYRQAPGKERELVAGITTSGGSTYYADSVKGRFTISRDNAKNTVYLQMNSLKPEDTAVYYWAAYDYISSTYFLDDYWGQGTQVTVSS”, for which the “polyreactivity (PSR sort gate)” value is “low polyreactivity”.

Regarding “QVQLVESGGGLVQAGGSLRLSCAASGSIFNYYVMGWYRQAPGKERELVAGIRWNGGSTYYADSVKGRFTISRDNAKNTVYLQMNSLKPEDTAVYDCAAQAWWGYYSRGPMDYWGQGTQVTVSS”, the “polyreactivity (PSR sort gate)” value was “low polyreactivity”. As to “QVQLVESGGGLVQAGGSLRLSCAASGSIFPAIAKGWYRQAPGTERELVAAISVSGARTYYADSVKGRFTISRDNAKNTVYLQMNSLKPEDTAVYYCAARAAGSQHDYWGQGTQVTVSS”, the “polyreactivity (PSR sort gate)” value is listed as “high polyreactivity”. As for “QVQLVESGGGLVQAGGSLRLSCAASGSIFPANAMGWYRQAPGKERELVAAINRDGITNYADSVKGRFTISRDNAKNTVYLQMNSLKPEDTAVYYCAAEFAWQWWEYGYWGQGTQVTVSS”, the entry is “low polyreactivity”. Consider “QVQLVESGGGLVQAGGSLRLSCAASGSIFPAYAMGWYRQAPGKERELVAASTDRGGSTSYADSVKGRFTISRDNAKNTVYLHKNSLKPEDT”, for which the “polyreactivity (PSR sort gate)” value is reported as “low polyreactivity”. The result for “QVQLVESGGGLVQAGGSLRLSCAASGSIFPAYAMGWYRQAPGKERELVASITGSGGSTYYADSVKGRFTISRDIAKNTVYLQMNSLKPEDTAVYYCNARYYVYSATVDRYYHFYYWGQGTQVTVSS” reads “high polyreactivity”. The result for “QVQLVESGGGLVQAGGSLRLSCAASGSIFPDYAMGRYRQAPGKERELVAGISSNSGSTYYADSVKGRFTISRDNAKNTVYLQMNSLKPEDTAVYYCAKDSFWRDTGYTDGDYWGQGTKVTVSS” reads “low polyreactivity”; that for “QVQLVESGGGLVQAGGSLRLSCAASGSIFPDYDMGWYRQAPGKERELVAAISSSGDSTYYADSVKGRFTISRDIAKNTVYLQMNSLKPEDTAVYYCAVDGTRSTSNGSEFTGYNYWGQGTQVTVSS”, “low polyreactivity”; that for “QVQLVESGGGLVQAGGSLRLSCAASGSIFPDYTMGWYRQAPGKERELVAAITRSGDSTYYADSVKGRFTISRDNAKNTVYLQMNSLKPEDTAVYYCARDAFSVSDFSYASIEYDYWGQGTQVTVSS”, “low polyreactivity”. The result for “QVQLVESGGGLVQAGGSLRLSCAASGSIFPEYAMGWYRQAPGKERELVASISSGGSSTYYADSVKGRFTISRDNAKNTVYLQMNSLKPEDTAVYYCARRRSYKRRFDYWGQGTQVTVSS” reads “low polyreactivity”; that for “QVQLVESGGGLVQAGGSLRLSCAASGSIFPFYAMGWYRQAPGKERELVAAITRSDGSTYYADSVKGRFTISRDNAKNTVYLQMNSLKPEDTAVYYCADYGYWGQGTQVTVSS”, “low polyreactivity”; that for “QVQLVESGGGLVQAGGSLRLSCAASGSIFPGNAIGSYRQAPGKERELDARITVSGGTTYFADSVKGRFTISRDNAKNTVYLQMNSLKPEDTAVYYCAADGPSPFIQGYAKGDYWGQGTQVTVSW”, “low polyreactivity”. With “QVQLVESGGGLVQAGGSLRLSCAASGSIFPGNAMGWSRQAPGKEREFVAAISWSGGSTYADSVKGRFTISRDNAKNTVYLQINSVKPEDTAVYYCAAVRRYLKAAYGYWGQGTKVTVSS”, the “polyreactivity (PSR sort gate)” value is “low polyreactivity”.

For “QVQLVESGGGLVQAGGSLRLSCAASGSIFPGNAMGWYRQAPGKERELVAAIRGGGSTNYADSVKGRFTISRDNAKNTVYLQMNSLKPEDTAVYYCNADPFTGYDYWGQGTQVTVSS”, the “polyreactivity (PSR sort gate)” value was “low polyreactivity”. As for “QVQLVESGGGLVQAGGSLRLSCAASGSIFPGNAMGWYRQAPGKERELVAVIDFSGASTYYADSVKGRFTISRDNAKNTVYLQMNSLKPEDTADYWGQGSQVTVSS”, the entry is “low polyreactivity”; as for “QVQLVESGGGLVQAGGSLRLSCAASGSIFPGNTMGWYRQAPGKERELVAGIDKNGGRTYYADSVKGRFTISRDNAKNTVYLQMNSLKPEDTAVYYCAADTWVFRRAFWTKYEYWGQGTQVTVSS”, “low polyreactivity”. As for “QVQLVESGGGLVQAGGSLRLSCAASGSIFPGYALGWYRQAPGKERELVATIRWSSGSRTNYADSVKGRFTISRENAKKTVYLQMNSLKPEDSAVYYCAAGSRRYKYDYWGQGTQVTVSS”, the entry is “high polyreactivity”.

With “QVQLVESGGGLVQAGGSLRLSCAASGSIFPGYAMGWSRQAPGKERELVAAISTSGGSTYADSVKGRFTISRDNAKNTVYLQMNSLKPEDTAVYYCAATYTYTSPVYYSLDGPWPYDYWGQGTQVTVSS”, the “polyreactivity (PSR sort gate)” value is reported as “low polyreactivity”. As for “QVQLVESGGGLVQAGGSLRLSCAASGSIFPHYAMGWYREAPGKERELVAAISRGGSTNYADSVKGRFTISRDNAKNTVYLQMNSLKPEDTAVYYCNALRYYSRFQYAVAYRYDYWGQGTQVTVSS”, the entry is “high polyreactivity”; as for “QVQLVESGGGLVQAGGSLRLSCAASGSIFPIYAMGRYRQAPGKERELVAAIDSSGGSTYYADSVKGRFTISRDNAKNTVYLQMNSLKPEDTAVYYCAADFGSKSTPYDYWGQGTQVTVSS”, “low polyreactivity”; as for “QVQLVESGGGLVQAGGSLRLSCAASGSIFPIYAMGWDRQAPGKERELVASINISGGRTYYADSVKGRFTISRDNAKNTVYLQMNSLKPEDSAVYYCAAEWYTTSEYDYWGQGTQVTVSS”, “low polyreactivity”. The result for “QVQLVESGGGLVQAGGSLRLSCAASGSIFPIYAMGWYRQATGKERELVAAINSGGGTNYADSVKGRFTISRDNAKNTVYLQMNSLKPEDTAVYYCAKSRYDYTKTEGGYWGQGTQVTVSS” reads “low polyreactivity”; that for “QVQLVESGGGLVQAGGSLRLSCAASGSIFPKYAMGWYRQAPGKEREFVAAISRRGGSTYYAYSVKGRFTISRDNAKNTVYLQMNSLKPEDTAVYYCSVKIPTYPIFGRYGYWGQGTQVTVSS”, “high polyreactivity”. As for “QVQLVESGGGLVQAGGSLRLSCAASGSIFPKYAMGWYRQAPGKERELVATISYRGGRTYYADSVKGRFTISRDNAKNTVYLQMYSLKPEDTAVYYCATRYPYYPFYVGIYELDYWGQGTQVTVSS”, the entry is “low polyreactivity”; as for “QVQLVESGGGLVQAGGSLRLSCAASGSIFPLYAMGWYRQAPGKERELVAAITSNGGRTYYADSVKGRFTISRDNAKNTVYLQMNSLKPEDTAVYYCNKYLLDYRRGRSDYWGQGTQVTVSS”, “low polyreactivity”.

Regarding “QVQLVESGGGLVQAGGSLRLSCAASGSIFPLYAMGWYRQAPGKERELVAGINGNDGSTYYADSVKGRFTISRDYEKNTVYLQRNRLKPEDTAVYYCAARGSTAHPHYPFNYWGQGTQVTVSS”, the “polyreactivity (PSR sort gate)” value is reported as “low polyreactivity”. Take “QVQLVESGGGLVQAGGSLRLSCAASGSIFPPYAMGWYRQAPGKERELVATITIRGGSTYYADSVKGRFTISRDNAKNSVYLQMNSLKPEDTAVYYCAADYTKYYRRYYYWGQGTQVTVSS”: the “polyreactivity (PSR sort gate)” value is reported as “high polyreactivity”. Take “QVQLVESGGGLVQAGGSLRLSCAASGSIFPQYAMGWYRQAPGKERELVAAISWSGGRTYYADSVKGRFTISRDNAKNTVYIQMNSLKPEDTAVYYCNRLYRRWYGREDDYWGQGTQVTVSS”: the “polyreactivity (PSR sort gate)” value was “high polyreactivity”. The result for “QVQLVESGGGLVQAGGSLRLSCAASGSIFPQYAMGWYRQAPGKERELVAVISWSGGRTYYADSVKGRFTISRDNAKNTVYLQMNSLKPEDTAVYYCAAKYWYQRYPQSSYTRYYWGQGTQVTVSS” reads “high polyreactivity”.

Take “QVQLVESGGGLVQAGGSLRLSCAASGSIFPRNAMGWSRQAPGKEMELVATITSGTSTNYADSVKGRFTISRDNAKNTVYLQMNSLKPEDTAVYYCAADHYYTGTTYNYWGQGTQVTVSS”: the “polyreactivity (PSR sort gate)” value is on record as “low polyreactivity”. As for “QVQLVESGGGLVQAGGSLRLSCAASGSIFPRNAMGWYRQAPGKERELVAAISWRGGRTYYADSVKGRFTISRDNAKKTVYLQMNSLNPEDTAVYYCSEQYSRWKRGEYYLSSSYGYWGQGTQVTVSS”, the entry is “high polyreactivity”; as for “QVQLVESGGGLVQAGGSLRLSCAASGSIFPRNAMGWYRQAPGKERELVAAITSSGGTTYYADSVKGRFTISRDNAKNTVYLQMISLKPEDTAVYYCNAAYPYSSVGRDYWGQGTQVTVSS”, “high polyreactivity”. Turning to “QVQLVESGGGLVQAGGSLRLSCAASGSIFPRYAMGWYRQAPGKERELVAAITGSGSSTYYADSVKGRFTISRDNAKNTVYLQMNSLKPEDTAVYYCADRFIWGYWGVGYYYWGQGTQVTVSS”, the “polyreactivity (PSR sort gate)” value was “low polyreactivity”.

As for “QVQLVESGGGLVQAGGSLRLSCAASGSIFPRYAMGWYRQAPGKERELVAAITGSGSSTYYADSVKGRFTISRDNAKNTVYLQMNSLKPEDTAVYYCAGVYTYPLGYYHYTYDYWGQGTQVTVSS”, the “polyreactivity (PSR sort gate)” value is listed as “low polyreactivity”.

Take “QVQLVESGGGLVQAGGSLRLSCAASGSIFPRYAMGWYRQAPGKERELVAAITSSAGSTYYADSVKGRFTISRDNAKNTVYLQMNSLKPEDTAVYYCAASGPWSYWYDYWGQGTQVTVSS”: the “polyreactivity (PSR sort gate)” value was “low polyreactivity”. As for “QVQLVESGGGLVQAGGSLRLSCAASGSIFPRYVMAWYRQAPGKERELVAAISGSGGSTYYADSVKGRFTISRDNAKNTVYFQMNSLIPEDTAVYYCNKLRRRVNRDIDDYWGQGTQVTVSS”, the entry is “high polyreactivity”; as for “QVQLVESGGGLVQAGGSLRLSCAASGSIFPSNAMGWYRQAPGKERELVAAISSSGGRTYYADSVKGRFTISRDNAKNTVYLQMNSLKPEDTAVYYCNRVYFKSRQGQMYYWGQGTQVTVSS”, “high polyreactivity”. As for “QVQLVESGGGLVQAGGSLRLSCAASGSIFPSNAMGWYRQAPGKERELVAAISWSGDITYYADSVKGRFTISRDNAKNTVYLQLNSLKPEDTAVYYCAADTPIAGYWYNYWGQGTQVTVSS”, the entry is “low polyreactivity”; as for “QVQLVESGGGLVQAGGSLRLSCAASGSIFPSYAMGWYRQAPGKERELVAAISKSGGRTKYADSVKGRFTISRDNAKNTVYLQMNSLKPEDTAVYYCAAYAYFHRREGYWGQGTQVTVSS”, “high polyreactivity”; as for “QVQLVESGGGLVQAGGSLRLSCAASGSIFPSYAMGWYRQAPGKERELVAAISRSAGSTYYADSVKGRFTISRDNAKNTVYLQMNSLKPEDTAVYYCAADGYSSRYRYDYWGQGTQVTVSS”, “low polyreactivity”.

Regarding “QVQLVESGGGLVQAGGSLRLSCAASGSIFPSYAMGWYRQAPGKERELVAAISSSGGSTYYADSVKGRFTISRDNAKNTVYLQMNSLKPEDTAVYYCATRYRRWSTVVQDDYWGQGTQVTVSS”, the “polyreactivity (PSR sort gate)” value is reported as “low polyreactivity”.
